For assay [1], the target named is T1, CA-14 bound to cannabidiol (CA-14-CBD complex) (non-covalently bound cannabidiol (CBD); AviTag biotinylated by BirA where immobilised (ELISA)).
T1 construct: Same polypeptide as m1, pre-equilibrated with the small molecule cannabidiol; also called CBD-CA-14 complex; not shown: C-terminal AviTag and His tag
The assay is described as follows: BLI (Octet RED96), biotinylated DB on streptavidin sensor, 1 uM CA-14 pre-equilibrated with CBD. The text has this: (§1) With the purified DB nanobodies in hand, we first sought to determine their binding affinities to the CA-14-CBD. CBD might directly bind to selected dimerization binders, which can affect the affinity measurement. To rule out this possibility, the four nanobodies were biotinylated (FIG. 7c) and immobilized on streptavidin biosensors, and the interaction with CBD was detected by BL1. Only minimal binding between CBD and the dimerization binders was detected (data not shown). Moreover, the binding-dissociation dynamics of the CA-14-CBD complex can also affect the measurement of dimerization binder affinities. To address this, the affinity was measured by a BLI assay in which the biosensor-immobilized dimerization binders were interacted with CA-14 pre-equilibrated with varied concentrations of CBD (FIG. 9a). The concentrations of the CA-14-CBD complex in equilibrium were calculated based on input CA-14 and CBD concentrations. The CA-14-CBD complex concentration was approximated to be constant because only a minimal fraction of the complex bound to the biosensor tips during the BLI assay. It was confirmed that CA-14 only interacts with the dimerization binders in the presence of CBD (FIG. 3a).
The nanobody binding kinetics was analyzed using an Octet™ RED96 system (ForteBio) and Streptavidin (SA) or Super Streptavidin (SSA) biosensors. For the anchor-binder analysis, 200 nM biotinylated anchor binders were immobilized on SSA biosensors with a binding assay buffer (1×PBS, pH 7.4, 0.05% Tween 20, 0.2% BSA, 3% methanol; Note: because CBD and THC were dissolved in methanol to make stock solutions, 3% methanol was added to the buffer to fairly compare samples and controls). Serial dilutions of CBD and THC were used for the anchor binder assays. Dissociation constants (KDS) of anchor binder-ligand interactions were calculated based on a steady-state analysis using Octet™ RED96 data analysis software.
For orientation: In BLI a coated tip is dipped into the sample, and binding shifts an interference pattern.

The target in assay [2] is T1, CA-14 bound to cannabidiol (CA-14-CBD …). The assay is described as follows: BLI; biotinylated DB-18 on streptavidin biosensors, analyte CA-14 pre-equilibrated with CBD; value printed in the scheme of ternary complex formation.
Description: as §1, with “It was confirmed that CA-14 only interacts with the dimerization binders in the presence of CBD (FIG. 3a).” left out
The nanobody binding kinetics was analyzed using an Octet™ RED96 system (ForteBio) and Streptavidin (SA) or Super Streptavidin (SSA) biosensors. […] Dissociation constants (KDS) of anchor binder-ligand interactions were calculated based on a steady-state analysis using Octet™ RED96 data analysis software.

B1: dimerization binder DB-11 (VHH)
VHH: EVQLQASGGGFVQPGGSLRLSCAASGTTSDNDTMGWFRQAPGKEREFVSAISWNGGRDEYYADSVKGRFTISRDNSKNTVYLQMNSLRAEDTATYYCAYQDNRSWQEYWGQGTQVTVSS
modifications: AviTag biotinylated by BirA (BLI)
notes: Purified, tagged and biotinylated in BLI; not shown: C-terminal AviTag and His tag (purified form)
For orientation: Kd means a measure of binding affinity in units of concentration. High values mean a looser complex, low ones a tighter complex. As usually defined, the koff is the rate constant with which the complex falls apart. Read a low koff as a long-lived complex. In general, kon refers to the second-order rate constant of association. Low values mean slower complex formation, high ones faster complex formation. For B1, in assay [1], the Kd was determined as 1380 nM, the koff was found to be 0.084 s⁻¹ and the kon came out at 61000 M⁻¹ s⁻¹.

B2: dimerization binder DB-6 (VHH)
VHH: EVQLQASGGGFVQPGGSLRLSCAASGRFSWGEEMGWFRQAPGKEREFVSAISWAATPWQYYADSVKGRFTISRDNSKNTVYLQMNSLRAEDTATYYCADEWHIGHVSYWGQGTQVTVSS
modifications: AviTag biotinylated by BirA (BLI)
notes: as for B1
In assay [1], B2 yielded a Kd of 19000 nM, a koff of 0.182 s⁻¹ and a kon of 9600 M⁻¹ s⁻¹.

B3: dimerization binder DB-21 (VHH)
VHH: EVQLQASGGGFVQPGGSLRLSCAASGTTYGQTNMGWFRQAPGKEREFVSAISGLQGRDLYYADSVKGRFTISRDNSKNTVYLQMNSLRAEDTATYYCAFHDFLRMWEYWGQGTQVTVSS
modifications: AviTag biotinylated by BirA (BLI)
notes: Purified and tagged in BLI (biotinylated) and SEC; the form used in the sandwich ELISA-like assay is not clearly stated (same id used for all); not shown: C-terminal AviTag and His tag (purified form)
In assay [1], B3 came in with a Kd of 56.4 nM, a koff of 0.000617 s⁻¹ and a kon of 11000 M⁻¹ s⁻¹.

B4: dimerization binder DB-18 (VHH)
VHH: EVQLQASGGGFVQPGGSLRLSCAASGGYSRADDMGWFRQAPGKEREFVSAISFGETDSFYYADSVKGRFTISRDNSKNTVYLQMNSLRAEDTATYYCAYHNYTNMFEYWGQGTQVTVSS
modifications: AviTag biotinylated by BirA (BLI)
notes: Purified and tagged in BLI (biotinylated) and SEC; also called 1DB-18; not shown: C-terminal AviTag and His tag (purified form)
Regarding B4, in assay [1], binding was characterised by a dissociation constant (Kd) of 553 nM, the koff was found to be 0.0227 s⁻¹ and the kon turned out to be 41000 M⁻¹ s⁻¹. In assay [2], this molecule displayed a Kd of 553 nM.

Source of the values: patent US20220177605A1 (University of Washington, published 2022).
